Test system: Escherichia coli TOP10
Test: shrunken log2 fold change of peptide-encoding DNA abundance (4.5 h post-induction vs induction); higher = less antimicrobial activity (less host growth inhibition)
Conditions: time post-induction: 4.5 h; library: site-saturation at positions 5, 18, 19, 20
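Further: peptides expressed intracellularly from a pBAD plasmid library in pooled LB shake-flask culture, induced with 0.3% L-arabinose, DNA abundance read by NGS, three biological replicates, DESeq2 with apeglm shrinkage.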

| Sequence | shrunken log2 fold change |
| --- | --- |
| RRIRLRPPRLPRPRPRPAMMPRP | -0.221 |
| RRIRLRPPRLPRPRPRPANDPRP | 0.0379 |
| RRIRLRPPRLPRPRPRPANYPRP | -0.032 |
| RRIRLRPPRLPRPRPRPAPCPRP | 0.0424 |
| RRIRLRPPRLPRPRPRPARFPRP | 0.0674 |
| RRIRLRPPRLPRPRPRPARLPRP | 0.647 |
| RRIRLRPPRLPRPRPRPARNPRP | 0.483 |
| RRIRLRPPRLPRPRPRPARSPRP | 0.343 |
| RRIRLRPPRLPRPRPRPASEPRP | 0.159 |
| RRIRLRPPRLPRPRPRPAVIPRP | -0.339 |
| RRIRLRPPRLPRPRPRPAVMPRP | 0.113 |
| RRIRLRPPRLPRPRPRPAVSPRP | -0.0934 |
| RRIRLRPPRLPRPRPRPAYCPRP | -0.088 |
| RRIRLRPPRLPRPRPRPCACPRP | -0.385 |
| RRIRLRPPRLPRPRPRPCAEPRP | 0.395 |
| RRIRLRPPRLPRPRPRPCAQPRP | -0.161 |
| RRIRLRPPRLPRPRPRPCARPRP | 0.0322 |
| RRIRLRPPRLPRPRPRPCAVPRP | -0.00495 |
| RRIRLRPPRLPRPRPRPCAWPRP | -0.005 |
| RRIRLRPPRLPRPRPRPCCAPRP | 0.694 |
| RRIRLRPPRLPRPRPRPCCWPRP | 0.41 |
| RRIRLRPPRLPRPRPRPCDDPRP | -0.189 |
| RRIRLRPPRLPRPRPRPCDGPRP | -0.181 |
| RRIRLRPPRLPRPRPRPCDHPRP | -0.239 |
| RRIRLRPPRLPRPRPRPCGFPRP | -0.0181 |

| Sequence | shrunken log2 fold change |
| --- | --- |
| RRIRLRPPRLPRPRPRPCGVPRP | -0.339 |
| RRIRLRPPRLPRPRPRPCIEPRP | -0.256 |
| RRIRLRPPRLPRPRPRPCISPRP | -0.177 |
| RRIRLRPPRLPRPRPRPCKEPRP | -0.0177 |
| RRIRLRPPRLPRPRPRPCLEPRP | -0.052 |
| RRIRLRPPRLPRPRPRPCMDPRP | -0.351 |
| RRIRLRPPRLPRPRPRPCMKPRP | -0.101 |
| RRIRLRPPRLPRPRPRPCMTPRP | 0.0964 |
| RRIRLRPPRLPRPRPRPCNGPRP | -0.00674 |
| RRIRLRPPRLPRPRPRPCNKPRP | -0.686 |
| RRIRLRPPRLPRPRPRPCNTPRP | -0.186 |
| RRIRLRPPRLPRPRPRPCNYPRP | -0.593 |
| RRIRLRPPRLPRPRPRPCPVPRP | -0.393 |
| RRIRLRPPRLPRPRPRPCQRPRP | -0.00788 |
| RRIRLRPPRLPRPRPRPCQYPRP | -0.448 |
| RRIRLRPPRLPRPRPRPCRKPRP | -0.19 |
| RRIRLRPPRLPRPRPRPCSEPRP | 0.0739 |
| RRIRLRPPRLPRPRPRPCTDPRP | -0.199 |
| RRIRLRPPRLPRPRPRPCTKPRP | -0.22 |
| RRIRLRPPRLPRPRPRPCWIPRP | -0.241 |
| RRIRLRPPRLPRPRPRPCWYPRP | -0.176 |
| RRIRLRPPRLPRPRPRPDAHPRP | 0.133 |
| RRIRLRPPRLPRPRPRPDCDPRP | 0.183 |
| RRIRLRPPRLPRPRPRPDCIPRP | 0.185 |
| RRIRLRPPRLPRPRPRPDEYPRP | -0.000921 |

| Sequence | shrunken log2 fold change |
| --- | --- |
| RRIRLRPPRLPRPRPRPDGCPRP | -0.0283 |
| RRIRLRPPRLPRPRPRPDGVPRP | -0.0786 |
| RRIRLRPPRLPRPRPRPDHDPRP | -0.0947 |
| RRIRLRPPRLPRPRPRPDIVPRP | -0.0115 |
| RRIRLRPPRLPRPRPRPDKHPRP | -0.971 |
| RRIRLRPPRLPRPRPRPDKMPRP | -0.121 |
| RRIRLRPPRLPRPRPRPDMIPRP | -0.0232 |
| RRIRLRPPRLPRPRPRPDMMPRP | -0.295 |
| RRIRLRPPRLPRPRPRPDNPPRP | -0.231 |
| RRIRLRPPRLPRPRPRPDPGPRP | -0.146 |
| RRIRLRPPRLPRPRPRPDPHPRP | -0.171 |
| RRIRLRPPRLPRPRPRPDPLPRP | 0.172 |
| RRIRLRPPRLPRPRPRPDPVPRP | -0.0275 |
| RRIRLRPPRLPRPRPRPDQMPRP | -0.0132 |
| RRIRLRPPRLPRPRPRPDQWPRP | -0.158 |
| RRIRLRPPRLPRPRPRPDRLPRP | -0.0156 |
| RRIRLRPPRLPRPRPRPDRRPRP | 0.0766 |
| RRIRLRPPRLPRPRPRPDSYPRP | 0.00388 |
| RRIRLRPPRLPRPRPRPDVFPRP | -0.165 |
| RRIRLRPPRLPRPRPRPECEPRP | 0.147 |
| RRIRLRPPRLPRPRPRPEDWPRP | 0.544 |
| RRIRLRPPRLPRPRPRPEEHPRP | 0.00515 |
| RRIRLRPPRLPRPRPRPEFKPRP | -0.4 |
| RRIRLRPPRLPRPRPRPEFYPRP | 0.0488 |
| RRIRLRPPRLPRPRPRPEGCPRP | 0.191 |
